{
  "source": "the DeepSol protein solubility set",
  "data": [
    {"assay": "soluble on expression in E. coli; label from the status in PepcDB or PDB records", "values": [
      {"sequence": "MKRLLLYVHFNKYNRVSSHVVYQLTQMRSLFSKVIFISNSQVADADVKMLREKHLIDDFIQRQNSGFDFAAWRDGMVFVGFDELVTYDSVTTMNDTCFGPLWEMYSIYQEFETKTTVDFWGLTNNRATKSFREHIQSYFISFKASVLRSTAFRDFWENIKEYQDVQKVIDQYETKVTTTLLDAGFQYDVVFDTTKEDASHMLHADFSYYNPTAILNHRVPFIKVKAIDNNQHITPYLLNDIQKNSTYPIDLIVSHMSEINYPDFSYLLGHKYVKKRERVDLKNQKAAVHLHVFYVDLLEEFLTAFKQFHFSYDLFITTDSDDKKAEIEEILSANSQEAQVFVTGNIGRDVLPMLKLKNYLSTYDFVGHFHTKKSKEADFWAGQSWREELIDMLVKPADNILAQLQQNPKIGLVIADMPTFFRYNKIVDAWNEHLIAPEMNTLWQKMGMTKKIDFNAFHTFVMSYGTFVWFKYDALKPLFDLNLTDDDVPEEPLPQNSILHAIERLLIYIAWNEHYDFRISLEHHHHHH", "soluble on expression in E. coli": "not soluble"},
      {"sequence": "MEASKYVGQGFQPPAEKDAVEFAKKHKDKIAKRGEQFFMDNFGLKVKATNVVGSGDGVEVFVHCDDHDIVFNASIPFDKSIIDSDSSLRSEDKGDDMSTLVGTVLSGFEYRAQKEKYDNLYKFFKENEKKYQYTGFTKEAINKTQNSGYENEYFYIVANIPTLQEYRKYYEPLIKKNNLNFKKGMKQARKGVGYKAAIEVHTTLFSRSSNFSKDKKLDDVIDLSESTKKLHLNFENTKIFLQLAKSTISTNRVNYSDNESIRIEVELEHHHHHH", "soluble on expression in E. coli": "not soluble"},
      {"sequence": "SDAILNYRPEGSEDYYALLGCDELSSVEQILAEFKIRALECHPDKHPENSKAVETFQKLQKAKEILCNAESRARYDHWRRSQMSMPFEQWEALADSVKTSMHWAVRSKKDLMLEGSGQTFTSSVPNKERSEQRETKKGDPDSNPEKMKQKEPKFPEEGISPQNPDSPGLSDLNCGHLRFRWSGDAPSELLRKFRNYEI", "soluble on expression in E. coli": "soluble"},
      {"sequence": "ASPLMSRTPAFERAAALARAKSAALHIVAFDYVEGLAAAGLLNERALNEMRDGYLASHRQWLEQQAQLIRQSGVEVTTEVVWVMRPLDEIMAHVHEIKPSMVIKDIGHESWLTRAMFTSLDIRLLHDCPVPLHLVANVDH", "soluble on expression in E. coli": "not soluble"},
      {"sequence": "MQHLTERMTQIAKLLNSSANNPDIDIPDFLTEIKDYSEFSVTDENGTYLHWDKFRRIHTEDTRMKWRAVKESRKKIQKPIDFPFEHQFWFCIPDSLQARLHLIDKSCGSSIGTSSLGGFGRSEQNRFLLKSLIMEEAITSAQLEGAATTRKVAKDMLKSQRKPKTKDEIMIVNNYHLMKKAVELKNTPLSVEMILDLHRIATSNAIENKAEPGQFRQDDEIFIADINGNSLYQPPPHGQVHTLMEEVCAFANNTYDGVENPFIHPVVQAIILHFLIGYIHPFGDGNGRTARALFYWFMLKNGYWLFEYISISRLLKNAPAQYAKSYLYAETDDLDLTYFIYYQCDIIKRAVADLEHYISDKQKHQQEFKAAIAQYTEKIGKLNQRQIGILQKAVEESGKIFTAQEIANQYGISLNTARSDLSKLGEYRFLVPFKSGNALEYVAPQDLLERLEKK", "soluble on expression in E. coli": "not soluble"},
      {"sequence": "MRLDVEQTSKLDRVRADYNVHYWSQGFYGIDDQGEMYVSPRSDNAHQIQLSKIVKQLEERQLNVPVLVRFPQILHQRVHSICDAFNQAIEEYQYPNKYLLVYPIKVNQQREVVDEILASQAQLETKQLGLEAGSKPELLAVLAMAQHASSVIVCNGYKDREYIRLALIGEKLGHKVFIVLEKMSELDLVLREAKSLGVTPRLGIRIRLASQGAGKWQASGGEKSKFGLSASQVLNVISRLKKENQLDTLQLVHFHLGSQMANIRDVRNGVNESARFYCELRTLGANITYFDVGGGLAIDYDGTRSQSSNSMNYGLVEYARNIVNTVGDVCKDYKQPMPVIISESGRSLTAHHAVLISNVIGTETYKPETVTEPEEDFPLLLNNMWRSWLNLHNGTDARALIEIYNDTQSDLAEVHSQFATGVLTLEHRAWAEQTSLRIYYELNRLMSTKNRFHRPILDELSERLADKFFVNFSLFQSLPDSWGIDQVFPVLPLSGLQNAADRRAVMLDITCDSDGAIDAYVDGQGIESTLPVPAWNEDEPYLMGFFLVGAYQEILGDMHNLFGDTHSVVVNVGDQGEINIDFINEGDTVEDMMRYVHIDVDQIRKNYHSLVSQRVDQEEQQQILAELEQGLSGYTYLEDFLEHHHHHH", "soluble on expression in E. coli": "soluble"},
      {"sequence": "MIIPEYGRTLTPEEWRPVVDEMLEATHIIFTTHENSDGDGLGSQVALALALKALGKEVAIFNPTEVPPNYLFLKELHEINLFRDRDEESMQEFFLADLLVVLDANLHDRIGRLWPHVEFARQMSRLKVLCIDHHLEPEDFADITVCETYASSTGELVCDLVTALELRTGQQLFTPEVASALYAAIMTDTGSFRFPKTTPYTYRLAGMLVEKGADPELVYDRIYNALTPEALKLLGLSLSNIKIIENGLISWLFITQEMLEQTGSKLFDTDLIIRYLLSVPTVKVAVLLVEMQDGRCKVSFRSRGKIYVNQLAKHYGGGGHMNAAGCLLRMSAEKAQLVILEDVRKFTLEQVDS", "soluble on expression in E. coli": "soluble"},
      {"sequence": "MQQNKCPDCEVELEWTGQYHCGQCESDFKKVGFCPDCGAELEKLQACGAANYFCNTCNELKSKSRVRFEFQKISLEHHHHHH", "soluble on expression in E. coli": "soluble"},
      {"sequence": "MSVEEVSKKFEENVSVDDTTATPKTVLSDSAHFDVKHPLNTKWTLWYTKPAVDKSESWSDLLRPVTSFQTVEEFWAIIQNIPEPHELPLKSDYHVFRNDVRPEWEDEANAKGGKWSFQLCGKGADIDELWLCTLLAVIGETIDEDDSQINGVVLSIRKGGNKFALWTKCEDKEPLLRIGGKFKQVLKLTDDGHLEFFPHCSANGRHPQPSITL", "soluble on expression in E. coli": "soluble"},
      {"sequence": "MGSDKIHHHHHHMNPLAVELNDLLAQHNPHVLEMLSDLGKNLFFPKGILTQSAEAKEKAHKFNATIGIATENGGPMYLQCIQDKLSAFDPKDIYPYAPPAGKPELRSLWREKMLRENPSQQGKHFSNPIVTNALTHGLSIAGDMFLDKGDHLILPDMLWGNYNLTFGTCCGAVIRKYPTFTATGGYDVDAFKAELKNSAEEKGKAVVLLNFPNNPSGYTPTVAEGDALVAAIKEVAEGGCNIVAITDDAYFGLFYEDSLKESLFGKLANLHPRILAVKLDGATKEEFVWGFRTGFITFADGNSYENTPVMTALEKKAMGIIRARISNCPHPSQTFAIEALRSPNFIKQKQEKFQVLKGRALKTKEVLNSGKYDKAWDYYPFNSGYFMCLKLKTVDAEKLRVHMLDKYGVGAISIGKTDLRIAFSCIDEKDIPELFATIHQAVQDLS", "soluble on expression in E. coli": "not soluble"},
      {"sequence": "MVTPIAVVGPTASGKSALGIALAHKLDGEVVNVDSMQLYKGMDIGTAKLTVEEREGIAHHQLDVWDVTETASVARFQSDAVADVEDIMSRGKTPILVGGSMLYVQSLVDDWQFPPTDSAVRARFEARLADIGVEALHAELTQLDPEAAAVIESNDPRRTVRALEVIELTGQPFQASQPPKDAPPRWGTRIIGLKTTPEWLNPRIEQRTARMFEQGFVAEVEHLVQQGLIADSTAGRAIGYSQVLAAMAGEMTWEDAFERTVTGTRRYVRRQRSWFNRDHRVSWVDASGDPTAQALEILGLQLEHHHHHH", "soluble on expression in E. coli": "soluble"},
      {"sequence": "MDFGKTNSKLFVFGQDGGILDERRTQPKWTHQDGFSVLDEAALHDWALGAVTEAVENHGVEGVMVSGHGCTFALVDDAALTHPILDYEQEPPAEIAARIDHRIPDFAETFSPRLPLGFNYGRHMLWVQEVDPDAFAAAKSILGYPQYWSWRLGGRPVSEVSYLGCHSHLWAPRSQDFSSLVDAEGWRGQMPAFARAGAVIGERRLGSSSRPIAIHNGVHDSNAALHAYRRQELGLEHHHHHH", "soluble on expression in E. coli": "soluble"},
      {"sequence": "MGSDKIHHHHHHMFTKKSRNIYKAGSLCEFAKAFFIGGIDVENVVKHALLKEVEQLMEQYIGGLKEIFLDEKIVGVYIYGSIALGAFHAETSDVDFVTVISDPVNEAEKQQLVELHKKLSGSTLGKRMDGMYIPLADLGKYNDEMNEYVYCADGKANIGHWDINAVTWWTLKNQGITVIGKEAEDLSFQIRWDDVVNTMKYNVEQYWSGKAKQPYLFFIEEWVESAVVTMGRILYTLDHKTIVSKDRGLQYLLEHSSEEWGPLLKEVERIRQNPKEKRMLSRWRRADMTKRFLLHLIETCRGKWTIQ", "soluble on expression in E. coli": "not soluble"},
      {"sequence": "MHTSELLKHIYDINLSYLLLAQRLIVQDKASAMFRLGINEEMATTLAALTLPQMVKLAETNQLVCHFRFDSHQTITQLTQDSRVDDLQQIHTGIMLSTRLLNDVNQPEEALRKKRA", "soluble on expression in E. coli": "soluble"},
      {"sequence": "MGSDKIHHHHHHMDANSLKAFLTIVDQGSFSEAAETLHLTQPAISKRLAALETQLGTRLIDRSNREIRLTEAGTRLLPHARKILDEIHNARMALTTSADSIGGELHAIASHHIGLHHLPNWLRRYRREYPQVDLHLQFMESDAAYDQMNKRNAELAFVTLSDSMNPEFSILAQWPDPMAFVVGKEHPLATLASPSLSDLAPHPALLPDTSTATYRVVSRLFLEANLTLRPLMPTNYLETIKMMVSVGLGWSILPVSMLDNSLKVLEVPHPVTRVLGAVALSRRQLGSAAQALLQIVEQEETRPESGQ", "soluble on expression in E. coli": "not soluble"},
      {"sequence": "MAHHHHHHMAATNSPTEEEVVMRYQQLRQECLAMDSRISELENELHEHQLVADTLKPLNGDRRCHRLVGGALIERTVADILPELVENIKGIEEALAQLNKMLTEKQAAMDEYARKHGVTVAQRQGQTPAGGGGANNDEGEKKPMGADSRGVLV", "soluble on expression in E. coli": "soluble"},
      {"sequence": "MIFDHGKKLMKRVERYSGCSSGSLVAAMFIFNPEKLVFLVSFRKTKGRLPLFSLFLLNFRNLCILSISEAVEEIYKMADEVNDKTLGAMSPGFVISDRLRKVVEKFLPDDVAKANDLLFVSVTKLKTWKNELISNFESKIDLIDCLMASCYHPMYSSGLNGKAPILRGEAYIDGGYSNMIPEFLDMRTVTVSAFAGDADICPVEKSALFNDFMFAFFNQNMKLTLSNMKRVTNALFPPTRAILQEYFNAGARDAEKLLKDSGFYE", "soluble on expression in E. coli": "not soluble"},
      {"sequence": "MGSDKIHHHHHHMRQTFIARKISFISLIHFRDEYMSPQNNHLQRPPAAVLYADELAKLKQNDNAPCPPGWQLSLPAARAFILGDSAQNISRKVVISPSAVERMLVTLATGRGLMLVGEPGTAKSLLSELLATSISGDAGLTIQGGASTTEDQIKYGWNYALLINHGPSTEALVPAPLYQGMRDGKIVRFEEITRTPLEVQDCLLGMLSDRVMTVPELTGEASQLYAREGFNIIATANTRDRGVNEMSAALKRRFDFETVFPIMDFAQELELVASASARLLAHSGIPHKVPDAVLELLVRTFRDLRANGEKKTSMDTLTAIMSTAEAVNVAHAVGVRAWFLANRAGEPADLVDCIAGTIVKDNEEDRARLRRYFEQRVATHKEAHWQAYYQARHRLP", "soluble on expression in E. coli": "not soluble"},
      {"sequence": "MIQIEQIRTGVIQENCYLVYNEEALLIIDPGAEGAKLIQEITRLGKKPAAILLTHTHYDHIGAVEELRHHYQIPVYVSPLEQAWLSNPILNLSGLGRHDDIANIIVQPAEHEFKLTDYEIGGMKFSVVPTPGHSIGSVSFVFDDFVVVGDALFKGSIGRTDLHTGDMQQLLHSITTYLFTLPEEFPVYPGHGDATTIQHEKATNPFFN", "soluble on expression in E. coli": "not soluble"},
      {"sequence": "MKGNRQRIQPKNIFQAVIDSPLSDQEKEVLTFLYQPIVGANAFSLYWLLLSETTDSEENGSLFHADLISLLDLSCQQLEEACYKLEGIGLLETYKKTDRELGDCYLYYLKAPETAARFFKDEVLALVLFNRVGQRKFDQLVQKFQPHPTKTEGYQNVSASFQEVYAFKEEQIVSEANRLTTIQETFSQKEKSKKISVSTDSFDWHYFVEGLHRLGLQLPEDEASFQEEVYVFHQLYGINELDMVDFASKSFDYYTSRILPKELVRTIHQAFDPDKKPQSTNVVTNKQAQLTVEEQQTYRYNALKMNGFSELDIQMIMDSEKNPPIQYLEALKNSRGGYTTPQERSLVKYLVAKSGLPTSVINILINYVYNIQQQPTLKAEYVNRIANEWGQSGIHSPEKAIEHVRELAKQSQTKQKQRQQNYSGKRQTVRQERLPEWADQPNDETKLSPEEQAELDRQIQEFLNQGGDQ", "soluble on expression in E. coli": "not soluble"}
    ]}
  ]
}
